Results on one substance are retold here after patent US20180371086A1.

Common to all, as to assay: cell-based or functional assay
In assay [1] the target is HIV-1 Env of isolate 8117 (HIV-1).
The target of assay [2] is HIV-1 Env of isolate 8176 (HIV-1).
The target of assay [3] is HIV-1 Env of isolate 8359 (HIV-1).
Assay [4] concerns the target HIV-1 Env of clone CH106 (HIV-1).
Assay [5] deals with HIV-1 Env of clone RHPA (HIV-1).
Assay [6] concerns the target HIV-1 Env gp120 of virus WITO, on infected cells (HIV-1).
Assay [7] deals with HIV-1 Env of clone THRO (HIV-1).
Assay [8] concerns the target HIV-1 Env of clone CH077 (HIV-1).
Assay [9] addresses HIV-1 Env of isolate 8398 (HIV-1).

Where only a bound is given, the exact number is not on record here.

As for PGT-121.60 (antibody), in [1], the IC50 (neutralization, CEM.NKr.CCR5.LucR based assay) was above 100 µg/mL. Besides, the IC50 (neutralization, CEM.NKr.CCR5.LucR based assay) in assay [2] was 0.028 µg/mL. The substance also showed an IC50 (neutralization, CEM.NKr.CCR5.LucR based assay) in [3] of 0.337 µg/mL. In [4], the IC50 (neutralization, CEM.NKr.CCR5.LucR based assay) is above 100 µg/mL. The substance further showed an IC50 (neutralization, CEM.NKr.CCR5.LucR based assay) in [5] of 0.534 µg/mL. In assay [6], this substance yielded a killing EC50; HIV-infected CD4 T cells (WITO); effector cells Eff Memory CD4 above 10 µg/mL, a killing EC50; HIV-infected CD4 T cells (WITO); effector cells Memory CD4 above 10 µg/mL, a killing EC50; HIV-infected CD4 T cells (WITO); effector cells Memory CD8 above 10 µg/mL and a killing EC50; HIV-infected CD4 T cells (WITO); effector cells γ Δ CD4 of 0.36 µg/mL. In assay [6], the killing EC50; HIV-infected CEM-NKr-CCR5-LucR CD4 T cells; PBMC donor 4176; virus WITO was above 100 µg/mL, the killing EC50; HIV-infected CEM-NKr-CCR5-LucR CD4 T cells; PBMC donor 4288; virus WITO was 0.767 µg/mL, the killing Emax; HIV-infected CD4 T cells (WITO); effector cells Eff Memory CD4 is 0% and the killing Emax; HIV-infected CD4 T cells (WITO); effector cells Memory CD4 is 9%. Moreover, in [6], the killing Emax; HIV-infected CD4 T cells (WITO); effector cells Memory CD8 worked out at 9%, the killing Emax; HIV-infected CD4 T cells (WITO); effector cells γ Δ CD4 stood at 18%, the killing Emax; HIV-infected CEM-NKr-CCR5-LucR CD4 T cells; PBMC donor 4176; virus WITO amounted to 0% and the killing Emax; HIV-infected CEM-NKr-CCR5-LucR CD4 T cells; PBMC donor 4288; virus WITO is 46%. The substance also yielded an IC50 (neutralization, CEM.NKr.CCR5.LucR based assay) in [7] above 100 µg/mL. For the same substance, the IC50 (neutralization, CEM.NKr.CCR5.LucR based assay) in assay [8] was above 100 µg/mL. Further, the IC50 (neutralization, CEM.NKr.CCR5.LucR based assay) in [9] is 0.028 µg/mL.
